In patent US12624112 (MABWELL SHANGHAI BIOSCIENCE, dated 2026):

T1: Human ST2-his (human, UniProt Q01638-2 19-328, limits assumed)
T1 construct: Expressed in CHO-K1; The printed range starts at Met1; also called human ST2 fused with a 6-histidine tag at the C-terminus
T1 sequence: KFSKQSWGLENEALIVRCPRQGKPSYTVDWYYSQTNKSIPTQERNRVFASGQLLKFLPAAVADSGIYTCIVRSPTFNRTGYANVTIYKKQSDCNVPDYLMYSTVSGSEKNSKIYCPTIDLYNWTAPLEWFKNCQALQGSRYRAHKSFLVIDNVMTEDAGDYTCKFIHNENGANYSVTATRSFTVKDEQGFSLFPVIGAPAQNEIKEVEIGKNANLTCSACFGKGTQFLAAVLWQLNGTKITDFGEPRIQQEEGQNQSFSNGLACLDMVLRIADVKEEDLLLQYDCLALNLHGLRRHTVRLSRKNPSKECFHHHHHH

T2: ST2 on the effector cells (KU812, KU812/NF-κB-1#, HUVEC, HMC-1) (human, UniProt Q01638 19-556)
T2 sequence (looked up): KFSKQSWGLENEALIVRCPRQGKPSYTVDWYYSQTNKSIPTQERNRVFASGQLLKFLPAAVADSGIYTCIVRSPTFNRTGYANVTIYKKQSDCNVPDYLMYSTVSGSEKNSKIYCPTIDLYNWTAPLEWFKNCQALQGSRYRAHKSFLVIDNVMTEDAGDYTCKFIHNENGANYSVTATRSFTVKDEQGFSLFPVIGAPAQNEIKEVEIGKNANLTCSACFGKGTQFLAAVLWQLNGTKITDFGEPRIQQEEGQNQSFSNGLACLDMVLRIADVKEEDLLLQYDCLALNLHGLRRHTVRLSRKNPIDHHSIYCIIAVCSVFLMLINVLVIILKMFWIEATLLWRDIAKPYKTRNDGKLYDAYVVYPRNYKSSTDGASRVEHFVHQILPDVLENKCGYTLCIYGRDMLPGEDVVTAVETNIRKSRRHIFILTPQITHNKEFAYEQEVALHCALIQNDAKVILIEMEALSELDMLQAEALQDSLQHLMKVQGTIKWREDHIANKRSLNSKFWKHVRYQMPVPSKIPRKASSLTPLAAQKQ


Experiments:
Human ST2-his [1] = molecular target: T1, Human ST2-his; test: SPR Biacore X100, ratio of kd at pH 5.5 to kd at pH 7.4
Description: (§1) The experiment on the interaction between the anti-human ST2 antibodies and human ST2-his was performed using Biacore X100.
(§2) Each anti-human ST2 antibody was diluted to 2 µg/mL and captured on the surface of a protein A chip for a capture time of 60 s. Following the antibody capture, a solution of human ST2-his (2-fold gradient dilution from a starting concentration of 20 nM, to obtain 6 concentrations in total) was injected. Association was monitored for 180 s and dissociation was monitored for 700 s, and the sensor surface was regenerated by injecting a solution of glycine at pH 2.0. Kinetic data were analyzed using a simple 1:1 binding model.

[2] = molecular target: T2, ST2 on the effector cells (KU812, …); test: cell-based or functional assay
Human ST2-his [3] = molecular target: T1, Human ST2-his; test: SPR Biacore X100, antibody captured on protein A chip, human ST2-his injected, dissociation at pH 5.5
Description: as §1, §2

[4] = molecular target: T2, ST2 on the effector cells (KU812, …); test: cell-based or functional assay; remark: listed apart in the source
[5] = molecular target: T2, ST2 on the effector cells (KU812, …); test: cell-based or functional assay; remark: listed apart in the source
Human ST2-his [6] = molecular target: T1, Human ST2-his; test: SPR Biacore X100, antibody captured on protein A chip, human ST2-his injected, pH 7.4
Description: as §1, §2

[7] = molecular target: T2, ST2 on the effector cells (KU812, …); test: cell-based or functional assay; remark: listed apart in the source
Human ST2-fc (human) = Human ST2-fc (human) (UniProt Q01638); test: competition ELISA, coated ST2-fc, competitor IL33-his
[8] = molecular target: T2, ST2 on the effector cells (KU812, …); test: cell-based or functional assay; remark: listed apart in the source
[9] = molecular target: T2, ST2 on the effector cells (KU812, …); test: cell-based or functional assay; remark: listed apart in the source

Binder	kd ratio of pH 5.5/pH 7.4 (Human ST2-his [1])	IC50, inhibition of KU812-IL5 production promoted by oxidized IL33 [2] [µg/mL]	Maximum inhibition rate, KU812-IL5 production by oxidized IL33 [2] [%]	Relative activity, KU812-IL5 production by oxidized IL33 [2] [%]	Kd (Human ST2-his [3]) [nM]	koff (Human ST2-his [3]) [s⁻¹]	kon (Human ST2-his [3]) [M⁻¹ s⁻¹]	IC50, inhibition of HMC-1 IL8 production promoted by IL33 [4] [µg/mL]	Maximum inhibition rate, HMC-1 IL8 production by IL33 [4] [%]	Relative activity, HMC-1 IL8 production by IL33 [4] [%]	IC50, inhibition of activation of KU812-NF-κB reporter gene by IL33 [5] [µg/mL]	Maximum inhibition rate, KU812-NF-κB reporter gene [5] [%]	Relative activity compared with CNTO7160, KU812-NF-κB reporter gene [5] [%]	Kd (Human ST2-his [6]) [nM]	koff (Human ST2-his [6]) [s⁻¹]	kon (Human ST2-his [6]) [M⁻¹ s⁻¹]	IC50, inhibition of HUVEC-IL6 production promoted by IL33 [7] [µg/mL]	Maximum inhibition rate, HUVEC-IL6 production by IL33 [7] [%]	Relative activity, HUVEC-IL6 production by IL33 [7] [%]	IC50 (Human ST2-fc (human)) [µg/mL]	also measured
5888-116-H0L1 (antibody, human IgG4 S228P, kappa, V domains shown, Humanized antibody) VH: QVQLVQSGAEVKKPGASVKVSCKASGYTFTDSEMYWVRQAPGQGLEWMGAIDPETGDTAFNQKFKGRVTMTRDTSTSTVYMELSSLRSEDTAVYYCARAFDNDNDDGFAYWGQGTMVTVSS VL: DIQMTQSPSSLSASVGDRVTITCSASSSVNYMHWYQQKPGKAPKRLIYDTSKLASGVPSRFSGSGSGTDYTFTISSLQPEDAATYYCQQWSSNPLTFGQGTKLEIKR	3.02	0.0036	102	614	0.474	0.0014	2.95e+06	0.00551	90.6	1830	0.013	95.7	1540	0.259	0.000464	1.79e+06	0.832	92.6	328	0.0204	Maximum inhibition rate (Human ST2-fc (human)): 94.1%; Relative activity compared with CNTO7160 (Human ST2-fc (human)): 5200%; IC50, inhibition of KU812-IL5 production promoted by reduced IL33 [8]: 0.124 µg/mL; Maximum inhibition rate, KU812-IL5 production by reduced IL33 [8]: 75.1%; Relative activity, KU812-IL5 production by reduced IL33 [8]: 1180%; IC50, inhibition of KU812-IL5 production promoted by IL-33 (human IL33-his) [9]: 0.00929 µg/mL; Maximum inhibition rate, KU812-IL5 production by IL-33 [9]: 98.3%; Relative activity compared with CNTO7160, KU812-IL5 production by IL-33 [9]: 656%
5888-153-H3L1 (antibody, human IgG4 S228P, kappa, V domains shown, Humanized antibody) VH: QVQLVQSGAEVKKPGASVKVSCKASGYTFTDYELHWVRQAPGQGLEWMGTIDPETGDTVYNQKFKARVTMTADKSTSTAYMELSSLRSEDTAVYYCTRAFYNDYDDAFAYWGQGTLVTVSS VL: EIVMTQSPATLSLSPGERATLSCSVSSSVSYMHWYQQKPGQAPRRLIYDTSKLASGIPARFSGSGSGTDYTLTISSLEPEDAAVYYCQQWNSSPLTFGGGTKVEIKR	1.57	0.0136	101	162	0.122	0.000232	1.9e+06	0.0472	86.8	213	0.0394	86.1	508	0.097	0.000148	1.53e+06	1.64	93	167	0.553	Maximum inhibition rate (Human ST2-fc (human)): 93.7%; Relative activity compared with CNTO7160 (Human ST2-fc (human)): 228%; IC50, inhibition of KU812-IL5 production promoted by reduced IL33 [8]: 0.265 µg/mL; Maximum inhibition rate, KU812-IL5 production by reduced IL33 [8]: 86.9%; Relative activity, KU812-IL5 production by reduced IL33 [8]: 554%; IC50, inhibition of KU812-IL5 production promoted by IL-33 (human IL33-his) [9]: 0.00815 µg/mL; Maximum inhibition rate, KU812-IL5 production by IL-33 [9]: 97%; Relative activity compared with CNTO7160, KU812-IL5 production by IL-33 [9]: 742%
5888-153-H0L1 (antibody, human IgG4 S228P, kappa, V domains shown, Humanized antibody) VH: QVQLVQSGAEVKKPGASVKVSCKASGYTFTDYELHWVRQAPGQGLEWMGTIDPETGDTVYNQKFKARVTMTRDTSTSTVYMELSSLRSEDTAVYYCARAFYNDYDDGFAYWGQGTLVTVSS VL: EIVMTQSPATLSLSPGERATLSCSVSSSVSYMHWYQQKPGQAPRRLIYDTSKLASGIPARFSGSGSGTDYTLTISSLEPEDAAVYYCQQWNSSPLTFGGGTKVEIKR	0.86	0.0147	101	150	0.0706	0.000152	2.15e+06	0.0359	87.2	280	0.0438	88.2	458	0.0997	0.000176	1.76e+06	0.844	93	323	0.3	Maximum inhibition rate (Human ST2-fc (human)): 94.3%; Relative activity compared with CNTO7160 (Human ST2-fc (human)): 380%; IC50, inhibition of KU812-IL5 production promoted by reduced IL33 [8]: 0.389 µg/mL; Maximum inhibition rate, KU812-IL5 production by reduced IL33 [8]: 83.6%; Relative activity, KU812-IL5 production by reduced IL33 [8]: 377%; IC50, inhibition of KU812-IL5 production promoted by IL-33 (human IL33-his) [9]: 0.0303 µg/mL; Maximum inhibition rate, KU812-IL5 production by IL-33 [9]: 99.1%; Relative activity compared with CNTO7160, KU812-IL5 production by IL-33 [9]: 201%
